# Laboratory results taken from article PMC11998529.
# Biological target: mitochondrial antiviral signaling protein (MAVS), full length, Flag-tagged (human (cDNA from HEK293T)) (UniProt Q7Z434)
# Sequence of UniProt Q7Z434 (Q7Z434 whole entry): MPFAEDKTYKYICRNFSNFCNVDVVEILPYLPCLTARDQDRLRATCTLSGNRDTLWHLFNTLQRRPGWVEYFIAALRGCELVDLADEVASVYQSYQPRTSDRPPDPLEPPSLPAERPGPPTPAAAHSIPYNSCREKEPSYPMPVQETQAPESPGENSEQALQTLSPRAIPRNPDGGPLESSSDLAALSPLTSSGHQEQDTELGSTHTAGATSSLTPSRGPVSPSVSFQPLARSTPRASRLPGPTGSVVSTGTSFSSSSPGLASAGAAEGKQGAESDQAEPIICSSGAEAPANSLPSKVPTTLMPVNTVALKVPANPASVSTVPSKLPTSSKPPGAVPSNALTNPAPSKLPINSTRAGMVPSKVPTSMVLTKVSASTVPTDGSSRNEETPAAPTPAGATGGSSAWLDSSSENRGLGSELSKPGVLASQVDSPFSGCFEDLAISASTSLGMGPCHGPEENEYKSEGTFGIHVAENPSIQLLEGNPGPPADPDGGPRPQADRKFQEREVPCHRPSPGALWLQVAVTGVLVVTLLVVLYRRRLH
substance,measurement,value
"EV-D68 structural protein VP3, HA-tagged (from UniProt Q68T42 318-552) (natural protein)","inhibition of MAVS-activated NF-κB promoter activity, dual-luciferase reporter in HEK293T, 600 ng VP3-HA plasmid",70%
